Experiments:
[1] = target: H3N2 pseudotyped lentiviral particles (H3 from A/Denmark/70/03, N2 from A/Texas/50/2012) (influenza A virus H3N2 A/Denmark/70/03; influenza A virus H3N2 A/Texas/50/2012); assay: cell-based or functional assay
[2] = target: H1N1 pseudotyped lentiviral particles (H1 and N1 from swine H1N1 A/California/04/09) (influenza A virus H1N1 A/California/04/09); assay: cell-based or functional assay

Chain of recombinant vaccinia virus complement control protein (VCP) (P68638 20-263): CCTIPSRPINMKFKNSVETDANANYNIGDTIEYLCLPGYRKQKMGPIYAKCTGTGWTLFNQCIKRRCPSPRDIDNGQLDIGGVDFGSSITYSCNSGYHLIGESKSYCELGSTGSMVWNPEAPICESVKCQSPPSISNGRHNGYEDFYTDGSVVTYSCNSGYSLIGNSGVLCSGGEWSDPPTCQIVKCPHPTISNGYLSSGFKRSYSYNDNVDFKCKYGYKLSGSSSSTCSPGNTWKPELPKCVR

“recombinant vaccinia virus complement control protein (VCP) (from UniProt P68638 20-263)” was tested, and the luciferase reporter activity of transduced MDCK cells, 40 µg/ml protein [1] was 30 % increase and the luciferase reporter activity of transduced MDCK cells, 40 µg/ml protein [2] was 45 % reduction.

From patent US20210145935A1
